The target of data set [1] is succinic semialdehyde dehydrogenase cce4228 protein from Cyanothece sp. ATCC51142 (wild-type, recombinant) (Cyanothece sp. ATCC51142). Briefly: SEC; size exclusion chromatography of purified recombinant cce4228 with standard protein ladders; native mass compared with the subunit mass. On the technique in general: In gel filtration, larger molecules generally elute earlier.

For data set [2], the target named is T1, cce4228 protein (succinic semialdehyde dehydrogenase, SSADH) (Crocosphaera subtropica, UniProt B1WSJ7).
T1 construct: gene gabD; full ORF in pET-28a, N-terminal 6xHis kept, E. coli BL21(DE3), Ni-NTA; native ca. 109 kDa
T1 sequence (B1WSJ7 1-455): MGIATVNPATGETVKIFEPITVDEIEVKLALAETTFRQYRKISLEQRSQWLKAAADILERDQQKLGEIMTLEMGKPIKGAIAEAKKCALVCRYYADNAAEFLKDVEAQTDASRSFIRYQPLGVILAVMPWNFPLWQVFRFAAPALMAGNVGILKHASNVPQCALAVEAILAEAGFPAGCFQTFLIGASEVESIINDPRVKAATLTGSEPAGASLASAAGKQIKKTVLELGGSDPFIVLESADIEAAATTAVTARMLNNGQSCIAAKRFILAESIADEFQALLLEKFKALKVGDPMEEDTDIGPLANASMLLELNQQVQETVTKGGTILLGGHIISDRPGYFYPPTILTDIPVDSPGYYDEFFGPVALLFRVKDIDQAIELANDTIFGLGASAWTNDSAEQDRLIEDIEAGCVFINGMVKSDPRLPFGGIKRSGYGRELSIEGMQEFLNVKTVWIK
Nature of the data set: initial velocity at […] nm. Type of data set: biochemical. The note with it: MgCl2, 50 mM CHES pH 9.0, 25°C, table marks wild-type data as from ref. 26, read-out: wild-type^e, cited from earlier work.

The target in data set [3] is T1, cce4228 protein (succinic semialdehyde dehydrogenase, SSADH). Briefly: initial velocity at […] nm, excess-substrate inhibition fit. Type of data set: biochemical. The note with it: 0.5 mM NADP+, MgCl2, 50 mM CHES pH 9.0, 25°C; table marks wild-type data as from ref. 26; read-out: wild-type^e; cited from earlier work.
Substrate in data set [4]: O=CCCC(=O)O
Briefly: purified protein. Type of data set: biochemical, Crocosphaera subtropica. The note with it: MgCl2, 50 mM CHES pH 9.0, 25°C.

Substrate in data set [5]: NC(=O)c1ccc[n+]([C@@H]2O[C@H](COP(=O)(O)OP(=O)(O)OC[C@H]3O[C@@H](n4cnc5c(N)ncnc54)[C@H](OP(=O)(O)O)[C@@H]3O)[C@@H](O)[C@H]2O)c1
Briefly: purified protein. Type of data set: biochemical, Crocosphaera subtropica. The note with it: 0.02 mM SSA, MgCl2, 50 mM CHES pH 9.0, 25°C, varied: cofactor.

Substrate in data set [6]: NC(=O)c1ccc[n+]([C@@H]2O[C@H](COP(=O)(O)OP(=O)(O)OC[C@H]3O[C@@H](n4cnc5c(N)ncnc54)[C@H](O)[C@@H]3O)[C@@H](O)[C@H]2O)c1
Nature of the data set: purified protein. Type of data set: biochemical, Crocosphaera subtropica. The note with it: 0.02 mM SSA, MgCl2, 50 mM CHES pH 9.0, 25°C, varied: cofactor.

One may read the stoichiometry N as the number of molecules, sites or subunits per partner or assembly. The term kcat denotes the maximal rate divided by the concentration of active sites. Broadly, the kcat/Km is the turnover number divided by the Michaelis constant.

Consider “succinic semialdehyde dehydrogenase cce4228 protein from Cyanothece sp. ATCC51142 (wild-type, recombinant) (enzyme)”, for which, in data set [1], the stoichiometry N worked out at 2.

Regarding `NC(=O)c1ccc[n+]([C@@H]2O[C@H](COP(=O)(O)OP(=O)(O)OC[C@H]3O[C@@H](n4cnc5c(N)ncnc54)[C@H](O)[C@@H]3O)[C@@H](O)[C@H]2O)c1` [NAD^+], the Km in data set [2] (0.02 mM SSA) is 1700 ± 200 µM.

For `NC(=O)c1ccc[n+]([C@@H]2O[C@H](COP(=O)(O)OP(=O)(O)OC[C@H]3O[C@@H](n4cnc5c(N)ncnc54)[C@H](OP(=O)(O)O)[C@@H]3O)[C@@H](O)[C@H]2O)c1` [NADP^+], the Km in data set [2] (0.2 mM SSA) is 34 ± 2 µM.

As for `O=CCCC(=O)O` [succinic semialdehyde], the Km in data set [3] was 8 ± 3 µM.

B1: cce4228 protein (succinic semialdehyde dehydrogenase, SSADH) (Crocosphaera subtropica ATCC 51142; S420A) (protein)
chain: MGIATVNPATGETVKIFEPITVDEIEVKLALAETTFRQYRKISLEQRSQWLKAAADILERDQQKLGEIMTLEMGKPIKGAIAEAKKCALVCRYYADNAAEFLKDVEAQTDASRSFIRYQPLGVILAVMPWNFPLWQVFRFAAPALMAGNVGILKHASNVPQCALAVEAILAEAGFPAGCFQTFLIGASEVESIINDPRVKAATLTGSEPAGASLASAAGKQIKKTVLELGGSDPFIVLESADIEAAATTAVTARMLNNGQSCIAAKRFILAESIADEFQALLLEKFKALKVGDPMEEDTDIGPLANASMLLELNQQVQETVTKGGTILLGGHIISDRPGYFYPPTILTDIPVDSPGYYDEFFGPVALLFRVKDIDQAIELANDTIFGLGASAWTNDSAEQDRLIEDIEAGCVFINGMVKADPRLPFGGIKRSGYGRELSIEGMQEFLNVKTVWIK
notes: full ORF in pET-28a, N-terminal 6xHis kept, E. coli BL21(DE3), Ni-NTA; native ca. 109 kDa
In the case of B1, in “purified protein [4]” (NADP+ as cofactor), the Km came out at 70 ± 10 µM and the catalytic constant (kcat) is 9.3 ± 0.9 s⁻¹.

B2: cce4228 protein (succinic semialdehyde dehydrogenase, SSADH) (Crocosphaera subtropica ATCC 51142; K154A) (protein)
chain: MGIATVNPATGETVKIFEPITVDEIEVKLALAETTFRQYRKISLEQRSQWLKAAADILERDQQKLGEIMTLEMGKPIKGAIAEAKKCALVCRYYADNAAEFLKDVEAQTDASRSFIRYQPLGVILAVMPWNFPLWQVFRFAAPALMAGNVGILAHASNVPQCALAVEAILAEAGFPAGCFQTFLIGASEVESIINDPRVKAATLTGSEPAGASLASAAGKQIKKTVLELGGSDPFIVLESADIEAAATTAVTARMLNNGQSCIAAKRFILAESIADEFQALLLEKFKALKVGDPMEEDTDIGPLANASMLLELNQQVQETVTKGGTILLGGHIISDRPGYFYPPTILTDIPVDSPGYYDEFFGPVALLFRVKDIDQAIELANDTIFGLGASAWTNDSAEQDRLIEDIEAGCVFINGMVKSDPRLPFGGIKRSGYGRELSIEGMQEFLNVKTVWIK
notes: as for B1
For B2, the Km in “purified protein [5]” was found to be 6100 ± 1500 µM. Also, the Km in the data set “purified protein [6]” stood at 1500 ± 400 µM. Also, in the data set “purified protein [4]” (8 mM NADP+), the Km was found to be 20 ± 10 µM, the kcat was 0.1 ± 0.05 s⁻¹ and the catalytic efficiency (kcat/Km) stood at 5000 M⁻¹ s⁻¹.

B3: cce4228 protein (succinic semialdehyde dehydrogenase, SSADH) (Crocosphaera subtropica ATCC 51142; S157E) (protein)
chain: MGIATVNPATGETVKIFEPITVDEIEVKLALAETTFRQYRKISLEQRSQWLKAAADILERDQQKLGEIMTLEMGKPIKGAIAEAKKCALVCRYYADNAAEFLKDVEAQTDASRSFIRYQPLGVILAVMPWNFPLWQVFRFAAPALMAGNVGILKHAENVPQCALAVEAILAEAGFPAGCFQTFLIGASEVESIINDPRVKAATLTGSEPAGASLASAAGKQIKKTVLELGGSDPFIVLESADIEAAATTAVTARMLNNGQSCIAAKRFILAESIADEFQALLLEKFKALKVGDPMEEDTDIGPLANASMLLELNQQVQETVTKGGTILLGGHIISDRPGYFYPPTILTDIPVDSPGYYDEFFGPVALLFRVKDIDQAIELANDTIFGLGASAWTNDSAEQDRLIEDIEAGCVFINGMVKSDPRLPFGGIKRSGYGRELSIEGMQEFLNVKTVWIK
notes: as for B1
With B3, the Km in the data set “purified protein [5]” was 1100 ± 200 µM; in “purified protein [6]”, 510 ± 40 µM; in the data set “purified protein [4]” (10 mM NADP+) it was 2.8 ± 0.7 µM. Moreover, the kcat in “purified protein [4]” (10 mM NADP+) is 1.5 ± 0.1 s⁻¹. The catalytic efficiency (kcat/Km) in “purified protein [4]” (10 mM NADP+) was 535000 M⁻¹ s⁻¹.

B4: cce4228 protein (succinic semialdehyde dehydrogenase, SSADH) (Crocosphaera subtropica ATCC 51142; R139A) (protein)
chain: MGIATVNPATGETVKIFEPITVDEIEVKLALAETTFRQYRKISLEQRSQWLKAAADILERDQQKLGEIMTLEMGKPIKGAIAEAKKCALVCRYYADNAAEFLKDVEAQTDASRSFIRYQPLGVILAVMPWNFPLWQVFAFAAPALMAGNVGILKHASNVPQCALAVEAILAEAGFPAGCFQTFLIGASEVESIINDPRVKAATLTGSEPAGASLASAAGKQIKKTVLELGGSDPFIVLESADIEAAATTAVTARMLNNGQSCIAAKRFILAESIADEFQALLLEKFKALKVGDPMEEDTDIGPLANASMLLELNQQVQETVTKGGTILLGGHIISDRPGYFYPPTILTDIPVDSPGYYDEFFGPVALLFRVKDIDQAIELANDTIFGLGASAWTNDSAEQDRLIEDIEAGCVFINGMVKSDPRLPFGGIKRSGYGRELSIEGMQEFLNVKTVWIK
notes: as for B1
B4: in “purified protein [4]” (NADP+ as cofactor), the Km is 112 ± 8 µM and the kcat amounted to 0.54 ± 0.01 s⁻¹.
